test system: K4 kissing-loop RNA reporter; assay: apparent KD of K4 kissing-loop reporter; higher = weaker reporter binding; details: Eterna round: R107; input ligand: theophylline 20 uM
Method: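 RNA-MaP round R107: designed RNA switches with theophylline, tryptophan, arginine or FMN aptamers are transcribed on-chip within common flanks. They are titrated with a labelled K4 kissing-loop RNA reporter in RNA-MaP buffer (100 mM Tris pH 7.5, 80 mM KCl, 4 mM MgCl2), without ligand or with the indicated ligand. Median apparent KD per design.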
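Further: bound reporter read as fluorescence of individual clusters on recovered sequencing chips by microscopy, with normalized cluster intensities fitted with a binding model.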

Row | Sequence | apparent KD of K4 kissing-loop reporter [nM]
1 | AAAUAGAUCAGUCACCCAGUGAUGUUGGAAGGAGCGUGCGAAAGCACAGGUAGGUCGCCAAAAUAAAAGUGGCUGAUCAAAAUAA [#SwitchBubble 5 #K4Early] | 526
2 | AUGGACUCUUCGGAGUCCGCCUUAAGGGAUACCAGUGAUGUUGGUCACCCUUGGCAGCCUAGAAAGGAAGCCACCAAAGGUGGCA [Omei v1 mod #OpenEnded #Sliding] | 160
3 | AUUCGUUUUUGUGAUACCAGACAUGUGAGUGAUGUUUACAUAUAUAUUUAAUAUUUAGCUGUCCCUUGGCAGCACUGUUUAUUUA [JR_ExcTheophyB_Sub003] | 444
4 | AGCGUCCCUACGGCCGCCACUGGGAGUGAUGUUCCCAGGUUAGGCCUGAGGAUACUAUGGAUCGCCAGGACCGGGUAGCGACCAA [Zaarin] | 97.2
5 | AGAGUACGAAAGUACUCCUCUACACACUGUCGAGGACCGGUACGGCCGCCACUCGAGUUGAGUGAUGUUCGAUAGUGUGUAGAGA [Omei KL Tryp A SS C v4] | 104
6 | GUCUGCUGUAUCGAUACCAGAAGUGGGCAGUGAUGUUGUUCGGGUACAUCGCGUCUCGAGUUCCCUUGGCAGCGAUUGUACGAAU [theeternabot_exclusion_KL_Theo_B_12] | 835
7 | CGCGGCCGGCCGGAUACCAGUGACCCGCUGGAAACCGCGGGCCCAGAGUGAUGUUCGGGACACCCUUGGCAGCCGCCUGGGCGUG [#2 Same State - Theophylline B Attempt #2 (HarryS)] | 456
8 | GGUAGCAUGGCGGCCGCCACUUUAUACUCGGUCGUUGGCGUCGUAAGUGAUGUUUACAUUCGCAAAAGGACCGGGCCAUGCUACC | 123
9 | UCCUAGGCUCGAAAGAGCCUAGGUUAGACUCAGGAUAUCUGGAAACAGAGAAGGGAGCUACUAGUGAUGUUAGGAAUUCCCAUUU | 88.5
10 | AGACUUCACCGAAGGAGCGACGUGGCCUAGUGAUGUUAGGCACGAGAGAAAUCUCGUAUACGUCAGGUAGGUCGCGGUGAAGUCA [Omei KL Arginine B SS C v6] | 160
11 | AGACUACCAACACUGUCAAUAGACAGUGACUAGGAUAUGCUGAUAAGCAGAAGGAGUGAUGUUCCUAAUAGAAAGGUAGUCAAAU [FmnAX 17 #SwitchBubble #StaticStem #K4Early] | 222

same assay, conditions: Eterna round: R107; input ligand: tryptophan 2.4 mM

Row | Sequence | apparent KD of K4 kissing-loop reporter [nM]
12 | UCCUAGGUUCGUCGGCGAAAGCCCUGCGAAGGAGCGUGCGAAAGUACAGGUAGGUCGCGCAGUGAUGUUGCACCUAGGUAAUAAA [#07 K4 Arginine A Exclusion] | 375
13 | ACACUAUCGUCAUAGACGGUAGUGAAAUCACAGGAUAUAAGUGAUGUUAGAAGGGUGAAAGACUGUAUCGAAUAGAUACAGUCAA [FmnA 3 #K4BetweenAptamer #OpenEnded] | 878
14 | AAGAGGUAGGCGGCCGCCACUUGUUGUGAACACAUACGAGCCAGUGAUGUUGGUAUUGUGGGCGGAAGGACCGGGCCUACCUGAA [Exclusion - Tryptophan B (Freestyle 20)] | 386
15 | AGCUCAGAGUGACUCGAUAAGAGUCACAAACGAGGACCGGUACGGCCGCCACUCGAAAUAAUGAGAGUGAUGUUCUCGCUGAGCA [#SwitchBubble 2 #StaticStem #K4Late] | 793
16 | UGGGCCGCCUGAGGAUAUAGAGACGAGUGAUGUUCGUGGAUCAGAGCCAGUGAUGUUGGGUUAUUUCUAGAAGGCGGGCGAACUU [Exclusion FMN B GF10] | 120
17 | UCGAAGGAUGGAAGGAGCGCUCGUCAGUCCUGCGAGUGAUGUUCGUGGGUAAAUAGUCGCGAGCAGGUAGGUCGCCAUCUUGAGC [Laxe] | 109
18 | GGAGGUUGGUGCGAUACCAGACCAGCAGUGAUGUUGCGCCAAAGUGAGUGAUGUUCACCGGUCCCUUGGCAGCGCAUUCCUUUAG [Same State Theophylline B GF 14] | 1110
19 | UGAUCUGCAGUGAUGUUGCAGUAGCUGUCAGAGGAUAUCAGACUCAUGAGAAGGCUGACAAUGUCUAACAGCACAAUGCUGUUCA [FMN A SS t6] | 146
20 | GCUAUGGUAGGAAGGAGCGCUUACUCGGUCAUAAGAGUGAUGUUCGAGACCGAGUAUUUAUAGCAGGUAGGUCGCCUACUAUAGC [Arginine B K4 6] | 352
21 | GGAUAGGAUAGAGGAUAUGGGUUAGGCAAGAAUAACUUGUCUAGUAAAUCCAUGAGGAGUGAUGUUCCAGAAGGCUGUCCUAUCG [MatMod 4 - Jieux - Exclusion - FMN B] | 98.3
22 | UGGAGUUGACGAAAAGUCAACUCCUGAGAUACCAGUGACGAAAGUCACCCUUGGCAGCUCACUGCCAGUGAUGUUGGUUCAUAAG [#03 K4 Theophylline A Same State] | 142
23 | CCAUCGCUGUUCGAUACCAGUCAUUUUUUAUUUUAUUUUUUUUUUGGAGUGAUGUUCCAAGACCCUUGGCAGCGGAUAGUGAUGG [whbob_SS_Theo_B_th80] | 111
24 | UACUAUAUUCUGUCGUUUUUAUUAGUUUGUCAGGAUAUCGUUUAUUCGAGAAGGGACACUAUCUAGUGAUGUUAGAUAUUUCUUU [JR_Nu3_ExcFMNA_Sub030] | 72.9
25 | UGUCAUUGGUCGGCCGCCACUUCAUGUAGAGUGAUGUUUUGUAGGACGGAUCGAAAGAUCUGUCGAAGGACCGGGACCGAUGACU [FiskerMod 15 - Jieux - Same State - Tryptophan B] | 1040
26 | UGUCAUGGAAACAUGAACGUUAAAAUAAAUCGAGGACCGGUACGGCCGCCACUCGUAUAGCGGUCAGUGAUGUUGACUGUAGUAA [KL-SSTryp-A form2 sub8] | 96.8
27 | UGACUGGACUGAAGGAGCGAGCGAGACAAAGUCUCGAAAAUUCAGUGAUGUUGAUAUAUAACUCAGGUAGGUCGCAGUCUAGUCU [ArgBS 5 #SwitchBubble #StaticStem] | 431
28 | UUUAACGAGUGAUGUUCGAAAAGUAAUAGUUAGGAUAUCGUUUUUUCGAGAAGGAACUUCGAAGUGAUACGAAAGUAUCGCUUCG [FMN A 1] | 181
29 | CCUUCUCAUUUCCGUUAUCAUUGCCUUAGGAAGGAUAUCAUUAUUUUGAGAAGGUCCGUGGUCUAUUUUCCGAGUGAUGUUUGGU [theeternabot_exclusion_KL_FMN_A_45] | 248
30 | AAUAAAAUCACGGCCGCCACUGAUAUCCAUAUUAGGAGUGAUGUUCCUAUGACUAUAUAAUUUAACAGGACCGGGUGAAUAUUUA [JR_SSTryptoB_Sub024] | 100
31 | GUGGUACAGGCGGCCGCCACUAGUGAUGUUAGUGAUAGAAGAUAUAGUAAAUAUCGGCAUUUAGAUAGGACCGGGCCUGGUGGUG [xxfxcmullin] | 267
32 | CACUGGGCGAGUGAUGUUCGCUCACGUGAUACCAGUGCCAUCCAACACCCUUGGCAGCAUGCGGGCAGUGAUGUUGUCCAAAGAA [Exclusion Theophylline A GF9] | 184

Row | Sequence | apparent KD of K4 kissing-loop reporter [nM]
33 | AUUUAGACGAGUGAUGUUCGUGAUAUUACAGAGGAUAUGCUUAAAAGCAGAAGGCUGUAUUUAUAUUUGUUAUGUAAUUUUAAAA [JR_ExcFMNA_Sub005] | 62.7
34 | UGACUGGAUGGAAGGAGCGCUAAACUCCUAGUGAUGUUAGGGAUACGAGGCAAAGCCUCGAAGCAGGUAGGUCGCCAUCUAGUCU [FiskerMod 21 - Jieux - Same State - Arginine B] | 159
35 | UAUUAAUUGUCAGGAUAUCGUAUUCGAGUGAUGUUCGUAUAUCGACGAUAGUCGAUUCUAUCUAUACGAGAAGGGACAUUAUUUA [JR_SSFMNB_Sub007] | 755
36 | CAUAGGAAACUAUGUAUCUCUCUUACUGAAGGAGCGCGUGAAAACGCAGGUAGGUCGCAGAAUUUAAAAGAGAGUGAUGUUCUCU [Ex Arginine A K4 8] | 301
37 | UUAGUUAGAUUAUUAUUAGCCUACAAUGCUAAGGAUAUCCGAAUUCGGAGAAGGUAGUGAUGUUACUUAAGUAGGCACUAACAUU [AK7 Exc FMN A] | 671
38 | GAGCCAGAGGUUGCUGCGGGUUUCAGAGAUACCAGCCGUAUUGUAGGCCCUUGGCAGCUCGAGUGAUGUUCGAGCCGCCUCUGGC [Eredorxela] | 109
39 | AGCCACGACGCGGCCGCCACUGCCAUUAAACGUAAGGCAAAUCUAAUCUUCGAGUGAUGUUCGGGCAGGACCGGGCGGAGACUUG [theeternabot_sameState_KL_Trp_B_18] | 371
40 | GCGCCGGUCUGCUUUAGAGUGAUGUUCUCCCGAGGACCGGUACGGCCGCCACUCGGCCAACGCUAUUAUCUUUGAUCCGCGGUGC [theeternabot_exclusion_KL_Trp_A_41] | 948
41 | UCAUCAUGAUGGUAGUAACCGCAUUGGGAGCGAGGACCGGUACGGCCGCCACUCGAAAUGUACAUAGCAGUAGUGAUGUUGCUGC [theeternabot_sameState_KL_Trp_A_47] | 115
42 | AAAAUAAACCAGUGAUGUUGGUGUCCAGAUACCAGCGAUAAAAGUCGCCCUUGGCAGCUGUGGACGUACAAAAUAAGUACGUCCU [MatMod 2 - Jieux - Same State - Theophylline A] | 678
43 | AAAUAGAUCAGUCACCCAGUGAUGUUGGAAGGAGCGUGCGAAAGCACAGGUAGGUCGCCAAAAUAAAAGUGGCUGAUCAAAAUAA [#SwitchBubble 5 #K4Early] | 226
44 | AUGGACUCUUCGGAGUCCGCCUUAAGGGAUACCAGUGAUGUUGGUCACCCUUGGCAGCCUAGAAAGGAAGCCACCAAAGGUGGCA [Omei v1 mod #OpenEnded #Sliding] | 101
45 | AUUCGUUUUUGUGAUACCAGACAUGUGAGUGAUGUUUACAUAUAUAUUUAAUAUUUAGCUGUCCCUUGGCAGCACUGUUUAUUUA [JR_ExcTheophyB_Sub003] | 291
46 | AGCGUCCCUACGGCCGCCACUGGGAGUGAUGUUCCCAGGUUAGGCCUGAGGAUACUAUGGAUCGCCAGGACCGGGUAGCGACCAA [Zaarin] | 83.5
47 | AGAGUACGAAAGUACUCCUCUACACACUGUCGAGGACCGGUACGGCCGCCACUCGAGUUGAGUGAUGUUCGAUAGUGUGUAGAGA [Omei KL Tryp A SS C v4] | 142
48 | GUCUGCUGUAUCGAUACCAGAAGUGGGCAGUGAUGUUGUUCGGGUACAUCGCGUCUCGAGUUCCCUUGGCAGCGAUUGUACGAAU [theeternabot_exclusion_KL_Theo_B_12] | 524
49 | CGCGGCCGGCCGGAUACCAGUGACCCGCUGGAAACCGCGGGCCCAGAGUGAUGUUCGGGACACCCUUGGCAGCCGCCUGGGCGUG [#2 Same State - Theophylline B Attempt #2 (HarryS)] | 397
50 | GGUAGCAUGGCGGCCGCCACUUUAUACUCGGUCGUUGGCGUCGUAAGUGAUGUUUACAUUCGCAAAAGGACCGGGCCAUGCUACC | 133
51 | UCCUAGGCUCGAAAGAGCCUAGGUUAGACUCAGGAUAUCUGGAAACAGAGAAGGGAGCUACUAGUGAUGUUAGGAAUUCCCAUUU | 95.6
52 | AGACUUCACCGAAGGAGCGACGUGGCCUAGUGAUGUUAGGCACGAGAGAAAUCUCGUAUACGUCAGGUAGGUCGCGGUGAAGUCA [Omei KL Arginine B SS C v6] | 180
53 | AGACUACCAACACUGUCAAUAGACAGUGACUAGGAUAUGCUGAUAAGCAGAAGGAGUGAUGUUCCUAAUAGAAAGGUAGUCAAAU [FmnAX 17 #SwitchBubble #StaticStem #K4Early] | 219

Source: the supplement of paper PMC9170038
